From paper PMC3469567 come the findings set out here.

Values joined by “and” are separate entries in the source; they are usually repeats but may differ in a detail not shown here. Identical values can stand only once.

For experiment [1], the target named is DFDNB-cross-linked native dimer of N67D-BS-RNase (bovine) (UniProt P00669). Kind of experiment: SEC; oligomers induced by lyophilisation from 40% acetic acid, re-dissolved in 0.2 or 0.4 M NaPi pH 6.7; Sephadex G-100 (0.1 M ammonium acetate pH 5.65) or Superdex 75 10/300 GL (0.2 or 0.4 M NaPi pH 6.7), room temperature; amounts as percent area of SEC peaks. For orientation: SEC sorts molecules by how far they enter the pores of the column.

The target of experiment [2] is (N67D/)K113N-BS-RNase (bovine) (UniProt P00669). The experiment in a line: SEC; thermally induced oligomerisation: 150-200 mg/ml in aqueous media (40% EtOH, with or without guanidine, and others), 45, 50 or 60°C for 1 h, then 0.2 M NaPi pH 6.7; Superdex 75.
For experiment [3] the target is unchanged. The experiment is described as above. The source holds these as a separate data set.
Experiment [4] has the same target. The experiment in a line: SEC; oligomers induced by lyophilisation from 40% acetic acid, re-dissolved in 0.2 or 0.4 M NaPi pH 6.7; Sephadex G-100 (0.1 M ammonium acetate pH 5.65) or Superdex 75 10/300 GL (0.2 or 0.4 M NaPi pH 6.7), room temperature; amounts as percent area of SEC peaks.
For experiment [5], the target named is T1, bovine pancreatic ribonuclease (RNase A) (bovine), P61823.
T1 chain: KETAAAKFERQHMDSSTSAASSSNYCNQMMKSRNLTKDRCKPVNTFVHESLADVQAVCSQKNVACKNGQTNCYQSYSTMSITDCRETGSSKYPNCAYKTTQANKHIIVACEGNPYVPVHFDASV
Kind of experiment: SEC; thermally induced oligomerisation: 150-200 mg/ml in aqueous media (40% EtOH, with or without guanidine, and others), 45, 50 or 60°C for 1 h, then 0.2 M NaPi pH 6.7; Superdex 75. To be noted: remark: other sources report otherwise.

For experiment [6], the target named is T1, bovine pancreatic ribonuclease (RNase …). The experiment in a line: SEC; oligomers induced by lyophilisation from 40% acetic acid, re-dissolved in 0.2 or 0.4 M NaPi pH 6.7; Sephadex G-100 (0.1 M ammonium acetate pH 5.65) or Superdex 75 10/300 GL (0.2 or 0.4 M NaPi pH 6.7), room temperature; amounts as percent area of SEC peaks. As to conditions: remark: other sources report otherwise.

By stoichiometry N is commonly meant the number of molecules, sites or subunits per partner or assembly.

Regarding “DFDNB-cross-linked native dimer of N67D-BS-RNase (from UniProt P00669 27-150) (enzyme)”, the stoichiometry N in experiment [1] came to 4.
Take “(N67D/)K113N-BS-RNase (from UniProt P00669 27-150) (enzyme)”: the stoichiometry N in experiment [2] was 4. Also, the stoichiometry N in experiment [3] was above 4. In experiment [4], this molecule returned a stoichiometry N of 4, a yield of dimer D (% of the total) (% of the total) of 53.7, a yield of hexamers H (% of the total) (% of the total) of 10.9 and a yield of larger oligomers L.O. (% of the total) (% of the total) of 9.9. For the same molecule, in experiment [4], the yield of tetramer TT1/C (% of the total) (% of the total) amounted to 13.3 and the yield of tetramer TT2/N (% of the total) (% of the total) was determined as 12.2.

B1: bovine pancreatic ribonuclease (RNase A), P61823 27-150 (enzyme)
chain: T1 chain
As to B1, the stoichiometry N in experiment [5] was 2; in experiment [6], 2 and 3 and 4.
